Target: the molecule itself
Test: transmission electron microscopy; purified AP205 VLPs adsorbed onto carbon-Formvar-coated grids, stained with 2% phosphotungstic acid

B1: AP205 virus-like particles (recombinantly expressed coat protein of bacteriophage AP205) (natural protein)
chain: MANKPMQPITSTANKIVWSDPTRLSTTFSASLLRQRVKVGIAELNNVSGQYVSVYKRPAPKPEGCADACVIMPNENQSIRTVISGSAENLATLKAEWETHKRNVDTLFASGNAGLGFLDPTAAIVSSDTTA
notes: coat protein of the Acinetobacter bacteriophage AP205; monomer 14.0 kDa; The VLPs hold about 25-30 ug of host cell RNA per 100 ug of coat protein; also called AP205 VLPs; AP205 VLP carrier; source: E. coli, purified from cleared lysates (Fractogel TMAE anion exchange, hydroxyapatite); copies: 180
  binding result: binds
